B1: LINE1-full (parent)
chain: UACGUAGGUGGUUUUCCCCUGAUAGUGCUAAGGGGGCCUGGAAGUUUGGACUGGGCAGAGCUCAACACAGCGUGGCAAAGUGGCUGUGGCUAGACUGCCUCUCUGGAUUCCUCGUCACUCAGCAGGGCAUCUCUGAGAGAAAUGCC

Variants of: B1
Test: self-cleavage, relative activity (ratio to wild type); higher = more cleavage; in vitro, sequencing; the parent is a self-cleaving ribozyme

Compared with U29C A65G, U29C A67G is higher in self-cleavage: 0.09 for the first, 0.76 for the second.

Compared with U29C A67U, U29C A69U is lower in self-cleavage: 0.12 for the first, 0.11 for the second.

Going from U29C A77C to U29C A77U, the self-cleavage rises from 0.85 to 1.63.

Compared with U29C A78G, U29C A92G is lower in self-cleavage: 1.17 for the first, 0.21 for the second.

First: U29C A94G
Second: U29C A107G
The self-cleavage of the first is lower: 0.54 for the first, 0.7 for the second.

Compared with U29C A107U, U29C A117G is lower in self-cleavage: 1.21 for the first, 0.44 for the second.

Compared with U29C A121C, U29C A121U is lower in self-cleavage: 1.93 for the first, 1.5 for the second.

Compared with U29C A124C, U29C A124G is lower in self-cleavage: 1.23 for the first, 1.02 for the second.

Compared with U29C A124U, U29C A129G is higher in self-cleavage: 1.04 for the first, 2.12 for the second.

Compared with U29C A136U, U29C A138G is higher in self-cleavage: 1.54 for the first, 1.72 for the second.

Going from U29C A140G to U29C C63A, the self-cleavage falls from 1.2 to 0.07.

First: U29C C63U
Second: U29C C66U
The self-cleavage of the first is higher: 0.48 for the first, 0.07 for the second.

Going from U29C C84G to U29C C111A, the self-cleavage rises from 0.14 to 1.24.

Going from U29C C116U to U29C C120A, the self-cleavage rises from 0.85 to 1.24.

Compared with U29C C123U, U29C C145U is higher in self-cleavage: 1.21 for the first, 1.28 for the second.

First: U29C G36A
Second: U29C G44C
The self-cleavage of the first is lower: 1.63 for the first, 1.82 for the second.

First: U29C G48A
Second: U29C G53A
The self-cleavage of the first is lower: 0.88 for the first, 0.94 for the second.

Going from U29C G55C to U29C G60A, the self-cleavage rises from 0 to 0.02.

Going from U29C G70U to U29C G83A, the self-cleavage rises from 0.01 to 0.43.

First: U29C G89A
Second: U29C G114A
The self-cleavage of the first is lower: 0.06 for the first, 1.38 for the second.

Compared with U29C G114C, U29C G127A is lower in self-cleavage: 1.49 for the first, 0.64 for the second.

First: U29C G127C
Second: U29C U45C
The self-cleavage of the first is higher: 1.58 for the first, 1.08 for the second.

First: U29C U45G
Second: U29C U47A
The self-cleavage of the first is lower: 0.79 for the first, 1.11 for the second.

Going from U29C U47C to U29C U52A, the self-cleavage falls from 1.85 to 1.16.

Going from U29C U52C to U29C U62C, the self-cleavage falls from 1.84 to 0.15.

U29C U73C and U29C U81A are the same in self-cleavage: 1.3 for the first, 1.3 for the second.

Compared with U29C U81C, U29C U85A is lower in self-cleavage: 1.27 for the first, 0.12 for the second.

First: U29C U85C
Second: U29C U100C
The self-cleavage of the first is lower: 0.28 for the first, 1.49 for the second.

First: U29C U102A
Second: U29C U102C
The self-cleavage of the first is higher: 1.84 for the first, 1.1 for the second.

Compared with U29C U104A, U29C U104C is lower in self-cleavage: 1.12 for the first, 1 for the second.

First: U29C U108C
Second: U29C U109C
The self-cleavage of the first is higher: 1.27 for the first, 0.91 for the second.

First: U29C U112C
Second: U29C U115C
The self-cleavage of the first is lower: 1.07 for the first, 1.75 for the second.

Going from U29C U119A to U29C U119C, the self-cleavage rises from 1.21 to 1.45.

First: U29C U130G
Second: U29C U132A
The self-cleavage of the first is higher: 1.84 for the first, 1.47 for the second.

Going from U29C U132C to U29C U134A, the self-cleavage falls from 1.46 to 0.89.

Compared with U29C U134C, U29C U143A is lower in self-cleavage: 1.37 for the first, 1.17 for the second.

Compared with U29G, U29G A57G is lower in self-cleavage: 1.1 for the first, 0.51 for the second.

Compared with U29G A124G, U29G A141U is lower in self-cleavage: 0.44 for the first, 0.35 for the second.

First: U29G C113U
Second: U29G G35C
The self-cleavage of the first is lower: 0.66 for the first, 1.03 for the second.

First: U29G G70A
Second: U29G G137U
The self-cleavage of the first is lower: 0.27 for the first, 1.04 for the second.

Going from U29G U47A to U29G U85C, the self-cleavage falls from 1.41 to 0.46.

Going from U29G U96A to U29G U96C, the self-cleavage rises from 0.06 to 0.67.

First: U29G U104A
Second: U29G U108C
The self-cleavage of the first is higher: 1.6 for the first, 0.54 for the second.

Compared with U29G U112C, U29G U130C is lower in self-cleavage: 1.36 for the first, 0.63 for the second.

Going from U29G U134A to A30C A57G, the self-cleavage falls from 1.41 to 0.52.

First: A30C A69G
Second: A30C A107G
The self-cleavage of the first is lower: 0 for the first, 2.06 for the second.

Going from A30C A121G to A30C A140G, the self-cleavage falls from 2.42 to 1.

Compared with A30C A141G, A30C C113U is lower in self-cleavage: 1.38 for the first, 1.32 for the second.

First: A30C G35A
Second: A30C G41U
The self-cleavage of the first is lower: 1.51 for the first, 1.52 for the second.

Compared with A30C U46C, A30C U87C is lower in self-cleavage: 1.48 for the first, 0.64 for the second.

Going from A30C U96C to A30C U112C, the self-cleavage rises from 0.39 to 1.33.

Going from A30G A42C to A30G A42G, the self-cleavage rises from 0.59 to 0.9.

Going from A30G A43U to A30G A50G, the self-cleavage falls from 1.5 to 0.64.

Going from A30G A50U to A30G A57G, the self-cleavage rises from 0.89 to 1.39.

Going from A30G A59G to A30G A64C, the self-cleavage rises from 0.11 to 0.31.

First: A30G A64U
Second: A30G A65G
The self-cleavage of the first is higher: 0.65 for the first, 0.07 for the second.

Going from A30G A69U to A30G A77U, the self-cleavage rises from 0.19 to 0.71.

Compared with A30G A79G, A30G A79U is lower in self-cleavage: 1.19 for the first, 0.5 for the second.

First: A30G A92G
Second: A30G A107G
The self-cleavage of the first is lower: 0 for the first, 1.2 for the second.

Compared with A30G A107U, A30G A117G is lower in self-cleavage: 1.71 for the first, 0.91 for the second.

Going from A30G A124G to A30G A129C, the self-cleavage falls from 0.91 to 0.

Going from A30G A129G to A30G A136G, the self-cleavage rises from 0.72 to 1.23.

First: A30G A138G
Second: A30G A140G
The self-cleavage of the first is lower: 0.64 for the first, 0.99 for the second.

Going from A30G A141G to A30G C38U, the self-cleavage falls from 1.26 to 1.2.

Going from A30G C63A to A30G C63U, the self-cleavage rises from 0.3 to 0.51.

Compared with A30G C99A, A30G C103A is higher in self-cleavage: 0.61 for the first, 0.85 for the second.

Compared with A30G C110U, A30G C120U is higher in self-cleavage: 1.25 for the first, 1.53 for the second.

Compared with A30G C123A, A30G C145G is lower in self-cleavage: 1 for the first, 0.47 for the second.

Compared with A30G C146U, A30G G44C is lower in self-cleavage: 0.92 for the first, 0.8 for the second.

First: A30G G55U
Second: A30G G70U
The self-cleavage of the first is higher: 0.79 for the first, 0.11 for the second.

Compared with A30G G74A, A30G G83C is higher in self-cleavage: 0.56 for the first, 0.66 for the second.

First: A30G G88C
Second: A30G G97A
The self-cleavage of the first is higher: 0.44 for the first, 0.42 for the second.

Going from A30G G105C to A30G G126U, the self-cleavage rises from 0.25 to 0.96.

First: A30G U45A
Second: A30G U62A
The self-cleavage of the first is higher: 1.53 for the first, 0.04 for the second.

Going from A30G U62C to A30G U73A, the self-cleavage rises from 0.13 to 1.19.

Compared with A30G U73G, A30G U85A is lower in self-cleavage: 0.81 for the first, 0.32 for the second.

Going from A30G U85G to A30G U87A, the self-cleavage falls from 0.17 to 0.16.

Going from A30G U91C to A30G U96A, the self-cleavage falls from 0.65 to 0.21.

First: A30G U96C
Second: A30G U102C
The self-cleavage of the first is lower: 0.45 for the first, 1.15 for the second.

Going from A30G U104A to A30G U108C, the self-cleavage falls from 0.61 to 0.5.

First: A30G U109A
Second: A30G U109C
The self-cleavage of the first is lower: 1.38 for the first, 1.71 for the second.

Going from A30G U112A to A30G U112C, the self-cleavage falls from 1.1 to 0.96.

Going from A30G U115A to A30G U119A, the self-cleavage falls from 1.17 to 1.01.

In the case of A30G U119C, the self-cleavage is reported as 1.45.
